Experimental data: the DeepSol protein solubility set

Experiment: soluble on expression in E. coli; label from the status in PepcDB or PDB records

MRADGFVPLQALLQLPQFHSFSIEDVQLVVNTNEKQRFTLQPGEPSTGLLIRANQGHSLQVPELELTPLETPQALPLTLVHGTFWKHWPSILLKGLSRQGRTHIHLASGLPGDPGVISGIRPNCEVAVFIDGPLALTDGIPFFCSANGVILTPGNAEGFLLPKYFKEALQLRPTRKPLSLAGDKETETQSGPKLSSRGGRRKIQQ
soluble on expression in E. coli: soluble

MAHHHHHHMDMLGAVVVENSNLTTTLPAPHTLHERPAEGFSPQRRVLLVPLTEAYEHTTGWMVPTEMEGAQLAMSLYVNDTPVSLPPNWQLSPAKEAAAVKTAMAVDITPLVLSIERDLFSLQVIFSGDVAEMEMWRGVIACVLVEEVELAQLGERIVSTYHKRRAPVIRRSPLSSCGERGVVAITEVSVKIQCPITTLTMEIPVRGMYCEHLQCMELAAVLIQCARQNVWNCPLCSAAMKPEDIIVNHRLKDWIASHSREVVAQVEYIVETELGRPLKIVYKAARPEQHSTIEVIDDEEK
soluble on expression in E. coli: not soluble

MGSDKIHHHHHHMSAAVERSPEEKRVIPVALSSASVYPLSVHDAFAVAQDLGFDGVEVMVTNNATSQSPHSLLELSHRYRQPIVSIHAPTLLLTQKVWGSAWNKIEMSCRMAREVGCGTVVVHPPFRWQNNYAENFPAGIRQLADMYQVRIAVENMYPWRVRGRETVAYLPHWDPLGQDYDDVTWDFSHAATAGANSVEAIKALGGKLRHIHLTDGSGSGRDEHLIPGRGNQGCAEALQHLAGSGFDGVVVAEISTRRAKFAGERELWLNETLKFARQHLSHPLVGAREA
soluble on expression in E. coli: not soluble

VFDWDGTLVDSIARIVDSMKAAARETALPERGDTRIKGIIGLGLPEAIASLYPEVGDPALVERFRCAYSEHYLAQEAQPSRLFPGVAEAMVHFREAGFRLAVATGKSRRGLDRVLAGHGWSDFFDITRCADETASKPDPLMLHEILAHCRVEPGRALMIGDSPFDLEMARRAGMDSVAVAYGAQSLEQLRPYAPRLEVEHFTELRAWLGGARREAVS
soluble on expression in E. coli: not soluble

MTESEVRKLLRRMKELDSQTAFRAFYDMTYDRLYRIAYYYVKREEWSQEIVLDVFLKLWEQRSSLPEVKSIEDYCFILVKNASLNYLEKENRRTTVSTETLPEPEAQSDSPEESMISEELFAIYVKALDRLPERCREVFIRIREEKQSYAQVAEELGISTKTVDAQLQKATIRLKEAISMVNNDR
soluble on expression in E. coli: not soluble

TKDFSWNTDFTFSFYRDKWKERDENWSPNPYDMYNAPLRGYYMYLSDGLIQPGEEVSWMPGALPGQVKLKDIDGYAYNED
soluble on expression in E. coli: not soluble

MGKKYKNIVLLKGLEVINDYHFRMVKSLLSNDLKLNLKMREEYDKIQIADLMEEKFRGDAGLGKLIKIFEDIPTLEDLAETLKKEKLKVKGPALSRKRKKEVDATSPAPSTSSTVKTEGAEATPGAQKRKKSTKEKAGPKGSKVSEEQTQPPSPAGAGMSTAMGRSPSPKTSLSAPPNTSSTENPKTVAKCQVTPRRNVLQKRPVIVKVLSTTKPFEYETPEMEKKIMFHATVATQTQFFHVKVLNTSLKEKFNGKKIIIISDYLEYDSLLEVNEESTVSEAGPNQTFEVPNKIINRAKETLKIDILHKQASGNIVYGVFMLHKKTVNQKTTIYEIQDDRGKMDVVGTGQCHNIPCEEGDKLQLFCFRLRKKNQMSKLISEMHSFIQIKKKTNPRNNDPKSMKLPQEQSQLPNPSEASTTFPESHLRTPQMPPTTPSSSFFTKKSEDTISKMNDFMRMQILKEGSHFPGPFMTSIGPAESHPHTPQMPPSTPSSSFLTTLKPRLKTEPEEVSIEDSAQSDLKEVMVLNATESFVYEPKEQKKMFHATVATENEVFRVKVFNIDLKEKFTPKKIIAIANYVCRNGFLEVYPFTLVADVNADRNMEIPKGLIRSASVTPKINQLCSQTKGSFVNGVFEVHKKNVRGEFTYYEIQDNTGKMEVVVHGRLTTINCEEGDKLKLTCFELAPKSGNTGELRSVIHSHIKVIKTRKNKKDILNPDSSMETSPDFFF
soluble on expression in E. coli: soluble

MLLVMRAKQGKKTPKRKSQGVGNTQGQTPGSNDSDWVDQIGQSVSDGTQPDWSWNESAETASAAVSAQEVDPLTEYQVYKQFGYQGKAAESLAAYLDGIPDGEAKPENLIRELLDINLEVGDVDVLADNLQKYGKLILSELLAKYIEQALQRDSNHLRIRVLAEEGLGWGTQEIEKRAEGGSATAASASPPPDAGGKAYEAEEIKRIPIVRGKKDVSGISQEEIGAIAGLVRADQGAKILKDKVSYETASKQYDRAIQTSEKPANLIIDALKLDYQHADIDRFAGHLWKLYQTLGNYGRQVKERMLGWGYSLGYHEVFDDLEKGPNDRQIKDIGMGHGYLPKNIQKFKSQHRDLVLQDSSLINTGSSPADDAVKEVESLLMYGQIEAAMDVLEQAVLKYPDESQLYITLIDIYERTEDWDRLGQFLRVLRERADRLPEEVVMLMSRLLQRMNQNIKKIKRYGK
soluble on expression in E. coli: not soluble

MSLEAFIRSDQYNFIKSQAYILANGHATANDRGVIQALKSLAIEKIIHVFENLTDEQKELIDTVLTVQNREDAESFLMKIKPYVIPFQEVTAQTLKKLFPKAKKLKLPDMEEMDMKEISYLSWIDKGSSRKFIIAKNDKNKFVGLQGTFQSLNKKSICSLCHGHEEVGMFLVEIKGDIPGTFVKKGNYICKDGVACNQNMKSLDKLQDFIERLKKEGHHHHHH
soluble on expression in E. coli: soluble

MGSDKIHHHHHHLTQPITDWYKSGTGSTPVLKFQFATEKLLRPSGGGPSRRGTPIREIPMNLHKLLSDREQDGRPIRVGLIGAGRYGTMYLAQANNIPGIHVVAIADINVKRAEGAFELVGWPKNQIAPDIATALRDRSTTIVANADELFDVDIDVIVEATGNPIVGVKHALRAIETKKHIIMVTVEADALAGPALARRAEAAGVVYSMAYGDQPALIMELVDWARTSGFDVVCAGKGAKFLEHYHEMNPDNVWENWEFSKELTDSGQLNPNMHTSFRDGTKASIEMAAVANGAGLVPSDTGLTFTPGDVEEIATICRPADAGGVLAHEGTVDVMSSVKRDGTWIPHNTQEGVFVVVKATNAYVSGCFTEYPWHPDPTGQYAALYRPYHYVGLELNMSIANAALRGISTGSPIGFFGDVVATAKKNLKAGEFLDGEGGYTVWGQLVSAKHSVATGALPVALAHHVELRNDVAKGGIVGWDDVIMDDSLSQALEVRRETEALVAEFALNA
soluble on expression in E. coli: not soluble

MSLDHRKRESINDKNKMKVYTTVYAFQSLTQQIGGKYVDVQSIYPDGADLHSYEPTQKDMIDIAKSDLFVYSSHQLDPVAAKITNSMTNNSMKLALAEGLKQSDFIDSKGHDEDHEHHSHHEESNQDPHVWLDPVLNQKFAFMIKEKLIEKDPKHQAYYNKNYKMVNKDIVHIDQQLQSITKHSKRDKVVISHDSLGYLAHRYGFKQQGVKGMNDEEPSQKEILNIVKDIQHSHAPYVLYEQNITSKITDVIKKETDTKPLSFHNLAVLTKEEQNDDSISYQSLMKKNIYVLNRALNNEGHHHHHH
soluble on expression in E. coli: soluble

MSIYSKILVVADINNDEQPALARAVQLAQKSVSRSRITFFLSIYDFSYDMTSMLSVDERDAMRRGVIHQREQWMRKIAQPYLNDSFDFDVCVVWHNRPYEAIIAEVYAGGHDLLIKGTRKHDVLESVIFTPTDWHLLRKCPTPVLLIKNSDWPEQANILASVHVGSENPTHIDLNDAMVERLKEMSNRLDAEPYLVNAYPVTPANITIELPEFDPTTYTDAVRGHHLTAMKALRQKHGIDEEQT
soluble on expression in E. coli: not soluble

MTFNQEQDYWAGYKANERALIIQTWSGFGRYAPDHLYPPHILPLDTDNETLGTTVLQALANSRTFVYDSPEDQDFFDTEKIRQRYEDWVAKLCGNLGYKTRRALFKNMMSVDIWLHNGCLKISPSRHVKLEAWDAIDADDVILSLDNSPEEIGAGLKLALSRCR
soluble on expression in E. coli: soluble

MSLKKILIIVPDGGMLFESAGIADILMQANRLHPEGAREICYQVKLATTQPHQVIHGQSGLNLLADHRLHEIDPREPLDTIMITGRGQNPQEGMAVVDWLRLAAPHARRIVSICGGAMLLAQTGLLDGRRATTHWKLLETMQAEFPQIRVEGGPLYIQDEHIWTSGGVSSGFDLTLALVEEDYGFSLARDIAQDFVMYLRRPGGQLQFSRYNLQQTATQGPINDLLAWLLENLTADLSVDKLAEKVAMSPRNFTRVFTRETGASPARYVAEARLAAARQRLEQTHETLDRIAEQTGFGSSINLRRLFEKQLNLTPGEYRQRFHCRKMAEGHHHHHH
soluble on expression in E. coli: soluble

MSLEIGILDIKGSLPLFEDFGNLPTKIITENNYKEIKDLDALIIPGGSLIESKSLNDDLKKEIINFNGYIIGICSGFQILAKKIDIGRKSSVPIIKEGLGLLDVEFSPLVCTDRVEFEVKKSIFGEGKGEGFHCHTYGNIEVVDKETKILTVSKVKKLNYKLGAEKEIISGAFKGKVFGTMVHNFLDNEFVRDNFLKHLGVTEDEKEEIFEKNKIIKDELKKRALKYRLNPKLLKENNKKDVNKKRGIILLATSSNSGKTFLTTALSSKLNGRVFVAKIGGDVRDIVPALYLLREKMTKYNSIKIGERGWVDVSKFLDYIKKSDYDYIIVEGVMGAFTAALKNISSYQIAKKLGFPVYIVSACNISGIEGAFVEAMAYYSLLKDIGIKVEGVILNKVYDWNSFNKLKSLAEKHNIKLYGVGKIANESRGLIPEVEIDYESFCRNAFNVDLEIEIPEVEINNHIKDEEDNFLERLDNWMENINEGHHHHHH
soluble on expression in E. coli: soluble

MKFKYLSTPLLFSALLFSACSSVNVGANLKSLIKETTDQDLDLSESVSTSEGKKNLISSLKKSYETNPSKTASVLLNAWKQSVENGQIESSETNWTNWKFP
soluble on expression in E. coli: soluble

MGYRRFLQLVAHEFFHLWNVKRIRPKALEQFDYEAENYTPSLWFSEGATSYYDLLLPLRAGLYGVDSFLEALGKDLSRYLTTPGRKVQPLAESSFDAWVKLYRRDAYSDNQQMSYYLKGQLVCWLLDLEIRNHQPDLEHHHHHH
soluble on expression in E. coli: soluble

MGSDKIHHHHHHMKVIIVDDDKAMFLILKKMLSKIHNVEVIGTFDRLSTTMEFLENNEVDLAFLDIKISGDNGIDLAKQIVNLKKQINIVFISSHKEFALDSFDVFPLDYIVKPVSQEKLERAIDRASKVIIKSGEEEYKAFIYCFGGLEVRGRNNESVKWISTKSMELFSYLVINSGRSISRGRVIKDIFEEMELKDVESYLNTIVYQLRKALSPLGLKKIITFDSQGYSFDFKDVYVDYIDFISGVESIKEINKDNIDRAKQLVYLYKGDLFDDKEYIWAVGEKEYASNLYSKFLGKVCSWYLENDLINDAYSMGKKLIQYNELDSEVNKIFMNILAARRDKISLNKHYERYAKVLFRELGVKVEDSVEELYRKLIKVLR
soluble on expression in E. coli: not soluble

MRDTFPSLQAQHLHGIDEQALRPAFSTHKPRILILYGSLREVSYSRLLAFEAGRLLERLGCEVRIFDPKGLPLPDETPASHAKVQELRDLSQWSEGQVWVSPERHGAMTGIMKSQIDWIPLAVGSVRPTQGKTLAVMEVSGGSQSFNAVNQMRILGRWMRMITIPNQSSVARAFQEFDEDGRMRPSSYYDRVVDVCEELVKFTLLTRDASAYLTDRYSERKEQAAELEKRVSLKS
soluble on expression in E. coli: not soluble

MKLYIGNKNYSSWSLRAWLMVKKSGIKFDEILLQLDTDSFYQQLQSISPTLKVPTLVDGDITVWDSLSICEYINDSYLSGTAWPQDPKQKAKARSLACEMHSGFNALRNALPMNIRARRYVELSPAVQQDIARVDSIWSQQMAEFAPCQTQGTWLFGQWSIADMMFAPVVMRFFTYEIEVSQASRAYMEYIMSQPQMQAWITAAKAETEIVEADEAGVDR
soluble on expression in E. coli: not soluble

DSLGNLVDGDQIIYIIAKDRHQRGVLHGGVVGTLMSNYGLELAITSLGVPFQRSKVGDRYVLETLREKDWKIGGETSGHIVCLDKTTTGDGIVAALQVLSIMVKQNKALHELTAGIQLL
soluble on expression in E. coli: not soluble
